Measured values from patent publication US20160209421A1 (UNIVERSITY OF TOKYO, published 2016).
Bridge positions count the residues as written; N and C are the ends. Square brackets hold non-standard residues; d marks the D form. * marks the point of attachment. chloroacetamidine = chloroacetamidine warhead on ornithine δ-NH2, N=C(CCl)*; Ahp(2) = CCCCC[C@H](N)C(=O)O; Orn = NCCC[C@H](N)C(=O)O

Columns and labels:
[1] = target: T1, His-PAD4 (human, UniProt Q9UM07 1-663); experiment: SPR (Biacore T100, Ni-NTA sensor chip, His-PAD4 immobilized, peptide injected, 25 C)
T1 construct: Immobilised on a Ni-NTA sensor chip for SPR; No other PAD4 is described; also called peptidyl arginine deaminase 4; not shown: His tag
Description: Analysis of a reaction rate was performed at 25° C. using Biacore T100 instrument (GE healthcare) and a Ni-NTA sensor chip. His-PAD4 was immobilized on a chip surface. In any experiment, modified HBS-EP+(10 mM HEPES-KOH [pH 7.4], 150 mM NaCl, 50 μM EDTA, 0.05% Tween 20, 0.1% DMSO) was used as a running buffer. The reaction rate data were corrected by injecting five peptides having respectively different concentrations for one minute at a flow rate (10 mM HEPES-KOH [pH 7.4], 150 mM NaCl, 50 μM EDTA, 0.05% Tween 20, 0.1% DMSO). Peptide dissociation was performed for one minute during injection and for 3 minutes after the last injection.
Background binding was monitored by performing blank buffer injection twice before sample injection and once after sample injection in order to double reference with the surface of a negative control having no His-PAD4 bound thereto but having nickel. The binding sensorgram, the binding sensorgram was analyzed using the Biacore software.

[2] = target: Human PAD4 (human, UniProt Q9UM07 1-663); experiment: cell-based or functional assay
Chain of Human PAD4 (Q9UM07 whole entry): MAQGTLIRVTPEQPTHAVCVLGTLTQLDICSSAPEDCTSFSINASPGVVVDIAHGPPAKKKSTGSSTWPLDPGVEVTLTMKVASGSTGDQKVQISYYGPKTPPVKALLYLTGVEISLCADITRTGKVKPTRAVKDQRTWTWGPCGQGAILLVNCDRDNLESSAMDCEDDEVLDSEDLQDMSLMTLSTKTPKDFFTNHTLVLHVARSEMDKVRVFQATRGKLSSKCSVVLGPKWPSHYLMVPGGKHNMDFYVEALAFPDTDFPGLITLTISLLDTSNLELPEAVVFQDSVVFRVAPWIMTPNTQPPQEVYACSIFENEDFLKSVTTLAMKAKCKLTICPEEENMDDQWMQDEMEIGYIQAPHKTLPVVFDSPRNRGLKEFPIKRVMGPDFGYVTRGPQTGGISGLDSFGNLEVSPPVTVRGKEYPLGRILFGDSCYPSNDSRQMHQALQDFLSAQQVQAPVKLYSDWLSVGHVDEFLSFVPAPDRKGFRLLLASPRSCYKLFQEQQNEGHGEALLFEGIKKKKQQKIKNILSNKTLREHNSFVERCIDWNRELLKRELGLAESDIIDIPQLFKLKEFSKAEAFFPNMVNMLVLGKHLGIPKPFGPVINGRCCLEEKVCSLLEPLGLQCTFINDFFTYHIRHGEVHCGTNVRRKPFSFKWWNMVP

T1 sequence (Q9UM07 whole entry): as above

| Binder | Kd [1] | koff [1] | kon [1] | IC50 (read off the curve) [2] |
| --- | --- | --- | --- | --- |
| {CH2CO}-[dF]NA[Ahp(2)]YPYRPP[Ahp(2)]TSC-NH2 (thioether N-14; SMILES CCCCC[C@@H]1NC(=O)[C@H](C)NC(=O)[C@H](CC(N)=O)NC(=O)[C@@H](Cc2ccccc2)NC(=O)CSC[C@@H](C(N)=O)NC(=O)[C@H](CO)NC(=O)[C@H]([C@@H](C)O)NC(=O)[C@H](CCCCC)NC(=O)[C@@H]2CCCN2C(=O)[C@@H]2CCCN2C(=O)[C@H](CCCNC(=N)N)NC(=O)[C@H](Cc2ccc(O)cc2)NC(=O)[C@@H]2CCCN2C(=O)[C@H](Cc2ccc(O)cc2)NC1=O) [VB1C12 peptide] | 55 nM | 0.00664 s⁻¹ | 121000 M⁻¹ s⁻¹ | – |
| {CH2CO}-[dF]DA[Ahp(2)]YPFRPP[Ahp(2)]AHC-NH2 (thioether N-14; SMILES CCCCC[C@@H]1NC(=O)[C@H](C)NC(=O)[C@H](CC(=O)O)NC(=O)[C@@H](Cc2ccccc2)NC(=O)CSC[C@@H](C(N)=O)NC(=O)[C@H](Cc2c[nH]cn2)NC(=O)[C@H](C)NC(=O)[C@H](CCCCC)NC(=O)[C@@H]2CCCN2C(=O)[C@@H]2CCCN2C(=O)[C@H](CCCNC(=N)N)NC(=O)[C@H](Cc2ccccc2)NC(=O)[C@@H]2CCCN2C(=O)[C@H](Cc2ccc(O)cc2)NC1=O) [VB1C20 peptide] | 38.7 nM | 0.00356 s⁻¹ | 92100 M⁻¹ s⁻¹ | – |
| {CH2CO}-[dF]NA[Ahp(2)]YPY[Orn](chloroacetamidine)PP[Ahp(2)]TSC-NH2 (thioether N-14; SMILES CCCCC[C@@H]1NC(=O)[C@H](C)NC(=O)[C@H](CC(N)=O)NC(=O)[C@@H](Cc2ccccc2)NC(=O)CSC[C@@H](C(N)=O)NC(=O)[C@H](CO)NC(=O)[C@H]([C@@H](C)O)NC(=O)[C@H](CCCCC)NC(=O)[C@@H]2CCCN2C(=O)[C@@H]2CCCN2C(=O)[C@H](CCCNC(=N)CCl)NC(=O)[C@H](Cc2ccc(O)cc2)NC(=O)[C@@H]2CCCN2C(=O)[C@H](Cc2ccc(O)cc2)NC1=O) [VB1C12-Cl-amidine analog] | – | – | – | ~8000 nM |
